# What was measured:
# [1] = system: HeLa Kyoto; assay: melting temperature (median over replicates), in situ; higher = more thermally stable
# [2] = system: HeLa Kyoto; assay: thermal stability score vs G1/S (z-score of summed log2 fold changes over temperatures); higher = more thermally stable than in G1/S
# [3] = system: HeLa Kyoto; assay: solubility change mitosis vs G1/S (difference of NP-40 vs SDS log2 ratios) (log2 ratio difference); higher = more soluble in mitosis
# [4] = system: HeLa Kyoto; assay: solubility in G1/S (NP-40 vs SDS abundance) (log2 ratio); higher = more soluble; details: cell cycle stage: G1/S
# [5] = cell cycle stage: early G1 (4.5 h after nocodazole release)
# 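For melting temperature (median over replicates), in situ in this document: HeLa Kyoto cells synchronized by double thymidine or nocodazole block, proteins quantified by TMT10plex mass spectrometry, three independent biological replicates.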
# 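For solubility change mitosis vs G1/S (difference of NP-40 vs SDS log2 ratios) in this document: synchronized HeLa Kyoto cells (double thymidine block for G1/S, nocodazole release for mitosis), protein amounts in NP-40 versus SDS lysates quantified by mass spectrometry, three biological replicates.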
# 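For solubility in G1/S (NP-40 vs SDS abundance) in this document: HeLa Kyoto cells arrested at G1/S by double thymidine block, proteins quantified by TMT10plex mass spectrometry in mild NP-40 versus SDS extracts, three biological replicates.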
# 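For thermal stability score vs G1/S (z-score of summed log2 fold changes over temperatures) in this document: synchronized HeLa Kyoto cells, proteins quantified by TMT10plex mass spectrometry, three biological replicates, mitosis taken 0.5 h after nocodazole release, G1/S directly after double thymidine block.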
# CBX3, sequence (chain, as listed by the source): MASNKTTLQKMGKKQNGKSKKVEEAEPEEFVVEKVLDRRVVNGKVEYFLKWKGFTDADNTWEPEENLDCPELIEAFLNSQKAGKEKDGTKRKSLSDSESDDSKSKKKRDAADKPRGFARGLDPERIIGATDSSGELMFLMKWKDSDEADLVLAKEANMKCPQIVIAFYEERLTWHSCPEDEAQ
# ZMAT2, sequence (chain, as listed by the source): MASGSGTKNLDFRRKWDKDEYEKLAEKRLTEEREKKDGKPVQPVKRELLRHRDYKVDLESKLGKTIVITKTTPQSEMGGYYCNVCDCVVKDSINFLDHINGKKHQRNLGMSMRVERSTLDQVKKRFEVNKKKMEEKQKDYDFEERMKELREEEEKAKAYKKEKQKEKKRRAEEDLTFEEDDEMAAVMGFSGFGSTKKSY
Substance,melting temperature ([1]; cell cycle stage: G1/S),melting temperature ([1]; cell cycle stage: mitosis),"thermal stability score [2, 5]",thermal stability score ([2]; cell cycle stage: mitosis),solubility change mitosis (log2) [3],solubility in G1/S (log2) [4]
MAQCVQSVQELIPDSFVPCVAALCSDEAERLTRLNHLSFAELLKPFSRLTSEVHMRDPNNQLHVIKNLKIAVSNIVTQPPQPGAIRKLLNDVVSGSQPAEGLVANVITAGDYDLNISATTPWFESYRETFLQSMPALDHEFLNHYLACMLVASSSEAEPVEQFSKLSQEQHRIQHNSDYSYPKWFIPNTLKYYVLLHDVSAGDEQRAESIYEEMKQKYGTQGCYLLKINSRTSNRASDEQIPDPWSQYLQKNSIQNQESYEDGPCTITSNKNSDNNLLSLDGLDNEVKDGLPNNFRAHPLQLEQSSDPSNSIDGPDHLRSASSLHETKKGNTGIIHGACLTLTDHDRIRQFIQEFTFRGLLPHIEKTIRQLNDQLISRKGLSRSLFSATKKWFSGSKVPEKSINDLKNTSGLLYPPEAPELQIRKMADLCFLVQHYDLAYSCYHTAKKDFLNDQAMLYAAGALEMAAVSAFLQPGAPRPYPAHYMDTAIQTYRDICKNMVLAERCVLLSAELLKSQSKYSEAAALLIRLTSEDSDLRSALLLEQAAHCFINMKSPMVRKYAFHMILAGHRFSKAGQKKHALRCYCQAMQVYKGKGWSLAEDHINFTIGRQSYTLRQLDNAVSAFRHILINESKQSAAQQGAFLREYLYVYKNVSQLSPDGPLPQLPLPYINSSATRVFFGHDRRPADGEKQAATHVSLDQEYDSESSQQWRELEEQVVSVVNKGVIPSNFHPTQYCLNSYSDNSRFPLAVVEEPITVEVAFRNPLKVLLLLTDLSLLWKFHPKDFSGKDNEEVKQLVTSEPEMIGAEVISEFLINGEESKVARLKLFPHHIGELHILGVVYNLGTIQGSMTVDGIGALPGCHTGKYSLSMSVRGKQDLEIQGPRLNNTKEEKTSVKYGPDRRLDPIITEEMPLLEVFFIHFPTGLLCGEIRKAYVEFVNVSKCPLTGLKVVSKRPEFFTFGGNTAVLTPLSPSASENCSAYKTVVTDATSVCTALISSASSVDFGIGTGSQPEVIPVPLPDTVLLPGASVQLPMWLRGPDEEGVHEINFLFYYESVKKQPKIRHRILRHTAIICTSRSLNVRATVCRSNSLENEEGRGGNMLVFVDVENTNTSEAGVKEFHIVQVSSSSKHWKLQKSVNLSENKDTKLASREKGKFCFKAIRCEKEEAATQSSEKYTFADIIFGNEQIISSASPCADFFYRSLSSELKKPQAHLPVHTEKQSTEDAVRLIQKCSEVDLNIVILWKAYVVEDSKQLILEGQHHVILRTIGKEAFSYPQKQEPPEMELLKFFRPENITVSSRPSVEQLSSLIKTSLHYPESFNHPFHQKSLCLVPVTLLLSNCSKADVDVIVDLRHKTTSPEALEIHGSFTWLGQTQYKLQLKSQEIHSLQLKACFVHTGVYNLGTPRVFAKLSDQVTVFETSQQNSMPALIIISNV [TRAPPC8],51.5 °C,49.9 °C,-0.214,-0.392,-0.114,-0.261
MALYQRWRCLRLQGLQACRLHTAVVSTPPRWLAERLGLFEELWAAQVKRLASMAQKEPRTIKISLPGGQKIDAVAWNTTPYQLARQISSTLADTAVAAQVNGEPYDLERPLETDSDLRFLTFDSPEGKAVFWHSSTHVLGAAAEQFLGAVLCRGPSTEYGFYHDFFLGKERTIRGSELPVLERICQELTAAARPFRRLEASRDQLRQLFKDNPFKLHLIEEKVTGPTATVYGCGTLVDLCQGPHLRHTGQIGGLKLLSNSSSLWRSSGAPETLQRVSGISFPTTELLRVWEAWREEAELRDHRRIGKEQELFFFHELSPGSCFFLPRGTRVYNALVAFIRAEYAHRGFSEVKTPTLFSTKLWEQSGHWEHYQEDMFAVQPPGSDRPPSSQSDDSTRHITDTLALKPMNCPAHCLMFAHRPRSWRELPLRLADFGALHRAEASGGLGGLTRLRCFQQDDAHIFCTTDQLEAEIQSCLDFLRSVYAVLGFSFRLALSTRPSGFLGDPCLWDQAEQVLKQALKEFGEPWDLNSGDGAFYGPKIDVHLHDALGRPHQCGTIQLDFQLPLRFDLQYKGQAGALERPVLIHRAVLGSVERLLGVLAESCGGKWPLWLSPFQVVVIPVGSEQEEYAKEAQQSLRAAGLVSDLDADSGLTLSRRIRRAQLAHYNFQFVVGQKEQSKRTVNIRTRDNRRLGEWDLPEAVQRLVELQNTRVPNAEEIF [TARS2],51.4 °C,50.8 °C,-1.35,-0.229,-0.134,0.0817
CBX3,49.9 °C,50.9 °C,0.789,1.67,0.672,-0.141
MLRFLAPRLLSLQGRTARYSSAAALPSPILNPDIPYNQLFINNEWQDAVSKKTFPTVNPTTGEVIGHVAEGDRADVDRAVKAAREAFRLGSPWRRMDASERGRLLNRLADLVERDRVYLASLETLDNGKPFQESYALDLDEVIKVYRYFAGWADKWHGKTIPMDGQHFCFTRHEPVGVCGQIIPWNFPLVMQGWKLAPALATGNTVVMKVAEQTPLSALYLASLIKEAGFPPGVVNIITGYGPTAGAAIAQHVDVDKVAFTGSTEVGHLIQKAAGDSNLKRVTLELGGKSPSIVLADADMEHAVEQCHEALFFNMGQCCCAGSRTFVEESIYNEFLERTVEKAKQRKVGNPFELDTQQGPQVDKEQFERVLGYIQLGQKEGAKLLCGGERFGERGFFIKPTVFGGVQDDMRIAKEEIFGPVQPLFKFKKIEEVVERANNTRYGLAAAVFTRDLDKAMYFTQALQAGTVWVNTYNIVTCHTPFGGFKESGNGRELGEDGLKAYTEVKTVTIKVPQKNS [ALDH1B1],52.6 °C,52.8 °C,-1.97,-1.54,-0.0523,0.229
ZMAT2,57.8 °C,54.3 °C,1.39,-4.93,0.427,-0.324
MPSRKFADGEVVRGRWPGSSLYYEVEILSHDSTSQLYTVKYKDGTELELKENDIKPLTSFRQRKGGSTSSSPSRRRGSRSRSRSRSPGRPPKSARRSASASHQADIKEARREVEVKLTPLILKPFGNSISRYNGEPEHIERNDAPHKNTQEKFSLSQESSYIATQYSLRPRREEVKLKEIDSKEEKYVAKELAVRTFEVTPIRAKDLEFGGVPGVFLIMFGLPVFLFLLLLMCKQKDPSLLNFPPPLPALYELWETRVFGVYLLWFLIQVLFYLLPIGKVVEGTPLIDGRRLKYRLNGFYAFILTSAVIGTSLFQGVEFHYVYSHFLQFALAATVFCVVLSVYLYMRSLKAPRNDLSPASSGNAVYDFFIGRELNPRIGTFDLKYFCELRPGLIGWVVINLVMLLAEMKIQDRAVPSLAMILVNSFQLLYVVDALWNEEALLTTMDIIHDGFGFMLAFGDLVWVPFIYSFQAFYLVSHPNEVSWPMASLIIVLKLCGYVIFRGANSQKNAFRKNPSDPKLAHLKTIHTSTGKNLLVSGWWGFVRHPNYLGDLIMALAWSLPCGFNHILPYFYIIYFTMLLVHREARDEYHCKKKYGVAWEKYCQRVPYRIFPYIY [LBR],53.1 °C,52.5 °C,-0.47,-1.19,-0.0634,-0.228
MGVQGFQDYIEKHCPSAVVPVELQKLARGSLVGGGRQRPPQTPLRLLVDADNCLHRLYGGFYTDWVSGGQWNHMLGYLAALAKACFGGNIELFVFFNGALEKARLHEWVKRQGNERQTAQQIVSHVQNKGTPPPKVWFLPPVCMAHCIRLALIRFHVKVAQSIEDHHQEVIGFCRENGFHGLVAYDSDYALCNIPYYFSAHALKLSRNGKSLTTSQYLMHEVAKQLDLNPNRFPIFAALLGNHILPDEDLASFHWSLLGPEHPLASLKVRAHQLVLPPCDVVIKAVADYVRNIQDTSDLDAIAKDVFQHSQSRTDDKVIRFKRAIGYYSATSKPMSFHPPHYLAARPGPFGMPGMVPPHVPPQMLNIPQTSLQAKPVAPQVPSPGGAPGQGPYPYSLSEPAPLTLDTSGKNLTEQNSYSNIPHEGKHTPLYERSSPINPAQSGSPNHVDSAYFPGSSTSSSSDNDEGSGGATNHISGNKIGWEKTGSHSEPQARGDPGDQTKAEGSSTASSGSQLAEGKGSQMGTVQPIPCLLSMPTRNHMDITTPPLPPVAPEVLRVAEHRHKKGLMYPYIFHVLTKGEIKIAVSIEDEANKDLPPAALLYRPVRQYVYGVLFSLAESRKKTERLAFRKNRLPPEFSPVIIKEWAAYKGKSPQTPELVEALAFREWTCPNLKRLWLGKAVEDKNRRMRAFLACMRSDTPAMLNPANVPTHLMVLCCVLRYMVQWPGARILRRQELDAFLAQALSPKLYEPDQLQELKIENLDPRGIQLSALFMSGVDMALFANDACGQPIPWEHCCPWMYFDGKLFQSKLLKASREKTPLIDLCDGQADQAAKVEKMRQSVLEGLSFSRQSHTLPFPPPPALPFYPASAYPRHFGPVPPSQGRGRGFAGVCGFGGPYGETVATGPYRAFRVAAASGHCGAFSGSDSSRTSKSQGGVQPIPSQGGKLEIAGTVVGHWAGSRRGRGGRGPFPLQVVSVGGPARGRPRGVISTPVIRTFGRGGRYYGRGYKNQAAIQGRPPYAASAEEVAKELKSKSGESKSSAMSSDGSLAENGVMAEEKPAPQMNGSTGDARAPSHSESALNNDSKTCNTNPHLNALSTDSACRREAALEAAVLNKEE [FAM120A],50.9 °C,50.6 °C,-0.707,-2.24,-0.0663,-0.143
TNKS1BP1,57.1 °C,59.8 °C,-3.49,-3.6,0.0438,-0.0801

# — the supplement of paper PMC5998384
